These results are taken from paper PMC13376213, “Systematic discovery of motif-based interactions of the auxiliary domains of USP family deubiquitinases” (Nature Communications, 2026).

Assay [1] has as its system FLAG-USP20. As to the kind of experiment: IP-MS of FLAG-USP20 and variants vs empty vector. Type of assay: cell-based, human.
Experimental: For transfection, 1x10^6 HEK293 cells were seeded in 10 cm dishes with DMEM, 10% FBS, 1% L-G (without antibiotic) medium, incubated at 37 °C, with 5 % CO2 for 24 h. Cells were transfected with a transfection mix containing 970 mL of Opti-MEM (Thermo Fisher Scientific), 20 μL of PEI stock (1 mg/mL) and 5 mg of the desired cDNA. For co-transfection, 2.5 μg of DNA of each plasmid was used. The mix was vortexed for 15 s and incubated at room temperature for 15–20 min. The transfection mix was added to the dish and gently mixed. Plates were incubated at 37 °C for 36–48 h before harvesting. For USP33 constructs, 5 μM Bortezomib (proteasome inhibitor) was added 4 hours before harvesting the cells.
FLAG fusion proteins were immunoprecipitated from HEK293 cells transfected with plasmids encoding the protein of interest using the anti-FLAG M2 affinity gel from Sigma-Aldrich. […] The cell lysate was clarified by centrifugation at 17,000 x g, at 4 °C for 12 min, and the supernatant was transferred to a clean, pre-chilled low-binding Eppendorf tube. […] The IP samples were centrifuged at 6500 x g at 4 °C for 30 s. The supernatant containing the unbound proteins was transferred to a clean tube. The resin was washed three times with 500 μL of TBS, centrifuged at 6500 x g at 4 °C for 30 s. The bound FLAG fusion protein was eluted with 100 μL of 150 ng/μL 3X FLAG peptide (Sigma) in TBS and incubated in the cold room for 1 h or overnight. The tube was centrifuged at 6500 x g at 4 °C for 30 s; the eluted proteins were transferred to a clean tube. The eluted proteins were prepared for analysis by western blot or Mass Spectrometry.
Immunoprecipitation (IP) was carried out as described above; four technical replicates of each IP condition were performed, and the empty vector was used as a negative control. The eluted protein was processed following the Strap-micro protocol (Protifi). The IP elution containing 1–100 μg protein was 1:1 mixed with 2X lysis buffer (10% SDS, 100 mM TEAB pH 8.5). […] Samples were vortexed, mixed with 165 μL of 100 mM TEAB in 90% methanol, and passed through an S-Trap micro column at 4000 g for 30 s to trap the proteins. The column was washed with 150 μL of 100 mM TEAB in 90% methanol (at 4,000 x g for 30 seconds) three times. The S-Trap column was centrifuged again and transferred to a clean 2 mL tube for digestion with 20 μL of digestion buffer (1 μg trypsin per 10 μg sample in 50 mM TEAB), at 37 °C overnight in a thermomixer without shaking. The digested peptides were eluted with 40 mL of 50 mM TEAB in water, 40 mL of 0.2 % formic acid in water, and 40 mL of 50 % acetonitrile in water, centrifuging at 4000 x g for 1 min each time. The three elutions were pooled in a low-binding tube, placed on dry ice until frozen, dried in a SpeedVac vacuum (Thermo Scientific), and proceeded with the LCMS analysis.
Protein groups identified with a single peptide or quantified in fewer than three replicates in at least 1 condition were filtered out. Protein group intensities were median normalized and missing values were imputed using a Gaussian distribution centered on the median with a downshift of 1.8 and width of 0.3 (relative to the standard deviation).
In assay [2] the test system is FLAG-USP33. Put plainly: IP-MS of FLAG-USP33 and variants vs empty vector. It is filed as cell-based, human. As to the method:
For transfection, 1x10^6 HEK293 cells were seeded in 10 cm dishes with DMEM, 10% FBS, 1% L-G (without antibiotic) medium, incubated at 37 °C, with 5 % CO2 for 24 h. Cells were transfected with a transfection mix containing […] of Opti-MEM (Thermo Fisher Scientific), 20 μL of PEI stock (1 mg/mL) and […] of the desired cDNA. For co-transfection, 2.5 μg of DNA of each plasmid was used. The mix was vortexed for 15 s and incubated at room temperature for 15–20 min. The transfection mix was added to the dish and gently mixed. Plates were incubated at 37 °C for 36–48 h before harvesting. For USP33 constructs, 5 μM Bortezomib (proteasome inhibitor) was added 4 hours before harvesting the cells.
FLAG fusion proteins were immunoprecipitated from HEK293 cells transfected with plasmids encoding the protein of interest using the anti-FLAG M2 affinity gel from Sigma-Aldrich. Cell pellets were lysed with 100–200 μL/per dish lysis buffer (Pierce RIPA buffer, 1X protease inhibitor (Roche), 50 unit/μL of Benzonase Nuclease) rotating at 4 °C for 30–45 min. […] The cell lysate was clarified by centrifugation at 17,000 x g, at 4 °C for 12 min, and the supernatant was transferred to a clean, pre-chilled low-binding Eppendorf tube. […] The IP samples were centrifuged at 6500 x g at 4 °C for 30 s. The supernatant containing the unbound proteins was transferred to a clean tube. The resin was washed three times with 500 μL of TBS, centrifuged at 6500 x g at 4 °C for 30 s. The bound FLAG fusion protein was eluted with 100 μL of 150 ng/μL 3X FLAG peptide (Sigma) in TBS and incubated in the cold room for 1 h or overnight. The tube was centrifuged at 6500 x g at 4 °C for 30 s; the eluted proteins were transferred to a clean tube. The eluted proteins were prepared for analysis by western blot or Mass Spectrometry.
Immunoprecipitation (IP) was carried out as described above; four technical replicates of each IP condition were performed, and the empty vector was used as a negative control. The eluted protein was processed following the Strap-micro protocol (Protifi). The IP elution containing 1–100 μg protein was 1:1 mixed with 2X lysis buffer (10% SDS, 100 mM TEAB pH 8.5). […] Samples were vortexed, mixed with 165 μL of 100 mM TEAB in 90% methanol, and passed through an S-Trap micro column at 4000 g for 30 s to trap the proteins. The column was washed with 150 μL of 100 mM TEAB in 90% methanol (at 4,000 x g for 30 seconds) three times. The S-Trap column was centrifuged again and transferred to a clean 2 mL tube for digestion with 20 μL of digestion buffer (1 μg trypsin per 10 μg sample in 50 mM TEAB), at 37 °C overnight in a thermomixer without shaking. The digested peptides were eluted with […] of 50 mM TEAB in water, […] of 0.2 % formic acid in water, and […] of 50 % acetonitrile in water, centrifuging at 4000 x g for 1 min each time. The three elutions were pooled in a low-binding tube, placed on dry ice until frozen, dried in a SpeedVac vacuum (Thermo Scientific), and proceeded with the LCMS analysis.
Eluted peptides were resuspended in water supplemented with 0.015% dodecyl maltoside and 0.1% formic acid and were injected on a Vanquish Neo UHPLC System operating in trap and elute mode coupled to an Orbitrap Astral Mass Spectrometer (Thermo Fisher Scientific). […] Eluted peptides were analyzed using data-independent acquisition mode on the mass spectrometer.
Peptides were searched against the Uniprot Swissprot Human database (released on 02/01/2023) supplemented with the USP20 and USP33 mutants using DiaNN (v1.9.0)[62] operating in library-free mode. Data filtering and statistical analysis were carried out in Python (v3.9.0) using the packages pandas, numpy, sklearn, scipy, rpy2, Plotnine, and Plotly and R (v4.4.3) using the package limma.
Protein groups identified with a single peptide or quantified in fewer than three replicates in at least 1 condition were filtered out. […]

Where [3] appears, read: IP-MS, FLAG-USP20-ΔDUSP2 vs EV, comparison bh_2 Sample_Limma_ImpMedInt_USP20_DUSP2_domain/EV.
[4] abbreviates: IP-MS, FLAG-USP20 UBP mutant vs EV, comparison USP20_E55K_D59R/EV, Limma.
Where [5] appears, read: IP-MS, FLAG-USP20 vs EV, comparison USP20_wt/EV, Limma.
Setting [6] is: Table S7b USP20 MS_and_motif, bait USP20.

B1: RCCD1 (protein, UniProt A6NED2 1-376, looked up)
RCC1 domain-containing …: MAEERPGAWFGFGFCGFGQELGSGRGRQVHSPSPLRAGVDICRVSASWSYTAFVTRGGRLELSGSASGAAGRCKDAWASEGLLAVLRAGPGPEALLQVWAAESALRGEPLWAQNVVPEAEGEDDPAGEAQAGRLPLLPCARAYVSPRAPFYRPLAPELRARQLELGAEHALLLDAAGQVFSWGGGRHGQLGHGTLEAELEPRLLEALQGLVMAEVAAGGWHSVCVSETGDIYIWGWNESGQLALPTRNLAEDGETVAREATELNEDGSQVKRTGGAEDGAPAPFIAVQPFPALLDLPMGSDAVKASCGSRHTAVVTRTGELYTWGWGKYGQLGHEDTTSLDRPRRVEYFVDKQLQVKAVTCGPWNTYVYAVEKGKS
As to B1, the log2_FC in assay [1] (setting [3]) is listed as 4; in assay [1] (setting [4]) it was 4.331.

B2: ILVBL (protein, UniProt A1L0T0 1-632, looked up)
2-hydroxyacyl-CoA lyase 2: METPAAAAPAGSLFPSFLLLACGTLVAALLGAAHRLGLFYQLLHKVDKASVRHGGENVAAVLRAHGVRFIFTLVGGHISPLLVACEKLGIRVVDTRHEVTAVFAADAMARLSGTVGVAAVTAGPGLTNTVTAVKNAQMAQSPILLLGGAASTLLQNRGALQAVDQLSLFRPLCKFCVSVRRVRDIVPTLRAAMAAAQSGTPGPVFVELPVDVLYPYFMVQKEMVPAKPPKGLVGRVVSWYLENYLANLFAGAWEPQPEGPLPLDIPQASPQQVQRCVEILSRAKRPLMVLGSQALLTPTSADKLRAAVETLGVPCFLGGMARGLLGRNHPLHIRENRSAALKKADVIVLAGTVCDFRLSYGRVLSHSSKIIIVNRNREEMLLNSDIFWKPQEAVQGDVGSFVLKLVEGLQGQTWAPDWVEELREADRQKEQTFREKAAMPVAQHLNPVQVLQLVEETLPDNSILVVDGGDFVGTAAHLVQPRGPLRWLDPGAFGTLGVGAGFALGAKLCRPDAEVWCLFGDGAFGYSLIEFDTFVRHKIPVMALVGNDAGWTQISREQVPSLGSNVACGLAYTDYHKAAMGLGARGLLLSRENEDQVVKVLHDAQQQCRDGHPVVVNILIGRTDFRDGSIAV
In the case of B2, the log2_FC in assay [2] (IP-MS, FLAG-USP33-ΔDUSP2 vs EV, comparison bh_2 Sample_Limma_ImpMedInt_USP33_DUSP2_domain/EV) is 1.755; in assay [2] (IP-MS, FLAG-USP33 vs EV, comparison USP33_wt/EV, Limma), 1.749; in assay [2] (Table S7c USP33 MS_and_motif, bait USP33), 1.749.

B3: CCDC85C (protein, UniProt A6NKD9 2-419, looked up)
Coiled-coil domain-containing …: AKPAATAAAASEELSQVPDEELLRWSKEELARRLRRAEGEKVGLMLEHGGLMRDVNRRLQQHLLEIRGLKDVNQRLQDDNQELRELCCFLDDDRQKGRKLAREWQRFGRHAAGAVWHEVARSQQKLRELEARQEALLRENLELKELVLLLDEERAALAATGAASGGGGGGGGAGSRSSIDSQASLSGPLSGGAPGAGARDVGDGSSTSSAGSGGSPDHHHHVPPPLLPPGPHKAPDGKAGATRRSLDDLSAPPHHRSIPNGLHDPSSTYIRQLESKVRLLEGDKLLAQQAGSGEFRTLRKGFSPYHSESQLASLPPSYQDSLQNGPACPAPELPSPPSAGYSPAGQKPEAVVHAMKVLEVHENLDRQLQDSCEEDLSEKEKAIVREMCNVVWRKLGDAASSKPSIRQHLSGNQFKGPL
Turning to B3, the values for the log2_FC in assay [1] (setting [4]), in assay [1] (setting [5]) and in assay [1] (setting [6]) were 3.963, 4.015 and 4.015, respectively.

B4: MEIOC (protein, UniProt A2RUB1 1-952, looked up)
Meiosis-specific coiled-coil …: MEVRRGDTCPRPHPSGLREEGLEPKVAFPGGANRCWNLGADAGSRLTDVFGSVMLTGSASFYDCYTSQSEDNVDLRQTYTPFSSTEYSSSVDSSLFCAPWSTYGDDIKQPSNSQISIKNRIQTERNDYGSETDLYGLVSNILEEQDKSQPYFAEGTCSSNLKSVWPMNTSRFADHHDLLTETKRPIDTVISQQAFYSDESVSAMEKQYLRNSNLTPQQKIDELHHGFTGLDLEEQWMYPSRSDHSNCHNIQTNDTAKTTFQEYPLIKNCFTPQTGLSDIMKESGVDIYHYGRDRICTKGLEAPLQQKRAEMFLSQFNRYNENVDYCRYPEYVHPNKAKLNKCSNFSVQDSKKLANGTPETPTVEADTYTKLFQVKPANQKKMEETIPDQQNFTFPKTTPHLTEKQFAKEAVFTADFGLTSEYGLKPHTACPANDFANVTEKQQFAKPDPPHSEYFKSVNLLSNSATSSGGINLNRPTWMNVQTKNNTPIPYRNQGNLMKLNSHLSAASKGSNHSSDFPQLSSTNLTPNSNLFQKYCQENPSAFSSFDFSYSGAERIQSVNHIEGLTKPGEENLFKLVTDKKIKQPNGFCDNYSAQKYGIIENVNKHNFQAKPQSGHYDPEEGPKHLDGLSQNTYQDLLESQGHSNSHRTRGGDNSRVNRTQVSCFSNNYMMGDLRHNQCFQQLGSNGFPLRSTHPFGHSVVPLLDSYDLLSYDDLSHLYPYFNMMYGDNSFSGLMPTFGFQRPIKTRSGPASELHIRLEECCEQWRALEKERKKTELALAKNYPGKKVSSTNNTPVPRLTSNPSRVDRLIVDELRELARVVTLLGKMERLRSSLLHASISTALDRHLESIHIVQSRRKDEIVNASNRQRQGVPRCQDDRDVFALASAIKEMCVATRKTRTALWCALQMTLPKTASTADVVKPLQDTVNCEDKVHESINSSNPMNQRGETNKH
For the molecule B4, the log2_FC was found to be 4.277 in assay [1] (IP-MS, FLAG-USP20-ΔUBP vs EV, comparison bh_2 Sample_Limma_ImpMedInt_USP20_UBP_domain/EV); 4.883 in assay [1] (setting [4]); 5.071 in assay [1] (setting [5]); 5.071 in assay [1] (setting [6]).

B5: SNAP23 (protein, UniProt O00161 1-211, looked up)
Synaptosomal-associated …: MDNLSSEEIQQRAHQITDESLESTRRILGLAIESQDAGIKTITMLDEQKEQLNRIEEGLDQINKDMRETEKTLTELNKCCGLCVCPCNRTKNFESGKAYKTTWGDGGENSPCNVVSKQPGPVTNGQLQQPTTGAASGGYIKRITNDAREDEMEENLTQVGSILGNLKDMALNIGNEIDAQNPQIKRITDKADTNRDRIDIANARAKKLIDS
In assay [1] (setting [3]), B5 had a log2_FC of 6.953.

B6: RTL8C (protein, UniProt O15255 1-206, looked up)
CAAX box protein 1: MGGGRGLLGRETLGPGGGCSGEGPLCYWPPPGSPPAPSLRASLPLEPPRCPLRSCSLPRSACLCSRNSAPGSCCRPWASLWSEPPPSPSSQPAPPMYIWTLSCAPAASWAPVTHWTDHPLPPLPSPLLPTRLPDDYIILPTDLRCHSHRHPSHPTDRLLLLVIWTHLGGIWAGHSPWTVIQTAGRPPRDLSPSARPISSPPPETSC
B6: the log2_FC in assay [1] (setting [3]) came out at 4.856; in assay [1] (setting [4]) it was 5.261.
